First the molecules themselves.
B1: ERK4 (wild-type), GAL4 activation domain fusion [not stated] / DUSP2 (wild-type), GAL4 DNA-binding domain fusion [human] (parent complex)
chain 1: MAEKGDCIASVYGYDLGGRFVDFQPLGFGVNGLVLSAVDSRACRKVAVKKIALSDARSMKHALREIKIIRRLDHDNIVKVYEVLGPKGTDLQGELFKFSVAYIVQEYMETDLARLLEQGTLAEEHAKLFMYQLLRGLKYIHSANVLHRDLKPANIFISTEDLVLKIGDFGLARIVDQHYSHKGYLSEGLVTKWYRSPRLLLSPNNYTKAIDMWAAGCILAEMLTGRMLFAGAHELEQMQLILETIPVIREEDKDELLRVMPSFVSSTWEVKRPLRKLLPEVNSEAIDFLEKILTFNPMDRLTAEMGLQHPYMSPYSCPEDEPTSQHPFRIEDEIDDIVLMAANQSQLSNWDTCSSRYPVSLSSDLEWRPDRCQDASEVQRDPRAGSAPLAEDVQVDPRKDSHSSSERFLEQSHSSMERAFEADYGRSCDYKVGSPSYLDKLLWRDNKPHHYSEPKLILDLSHWKQAAGAPPTATGLADTGAREDEPASLFLEIAQWVKSTQGGPEHASPPADDPERRLSASPPGRPAPVDGGASPQFDLDVFISRALKLCTKPEDLPDNKLGDLNGACIPEHPGDLVQTEAFSKERW
chain 2: MGLEAARELECAALGTLLRDPREAERTLLLDCRPFLAFCRRHVRAARPVPWNALLRRRARGPPAAVLACLLPDRALRTRLVRGELARAVVLDEGSASVAELRPDSPAHVLLAALLHETRAGPTAVYFLRGGFDGFQGCCPDLCSEAPAPALPPTGDKTSRSDSRAPVYDQGGPVEILPYLFLGSCSHSSDLQGLQACGITAVLNVSASCPNHFEGLFRYKSIPVEDNQMVEISAWFQEAIGFIDWVKNSGGRVLVHCQAGISRSATICLAYLMQSRRVRLDEAFDFVKQRRGVISPNFSFMGQLLQFETQVLCH

The variants in this assay derive from B1. Kind of assay: yeast two-hybrid, β-galactosidase reporter assay; triplicate; read off a plot. (In general: A reporter such as luciferase makes a cellular process visible.)
For chain 1 D320N, the response is about 16.

Source of the values: publication PMC5333157 (2017).
